Here are results for 1 substance from article PMC12749748, “Chemically-induced degradation of the endoplasmic-reticulum stress sensor IRE1 by a VHL-recruiting chimera” (Nature Communications, 2025).

This assay concerns the target Biotinylated human IRE1.KR protein (human) (UniProt O75460). The assay is described as follows: SPR; Biacore S200, 20 °C; biotinylated IRE1.KR captured on a streptavidin chip (100-200 RU); VHL titrated without G6374, 8-point 2-fold series, top 5 µM, single cycle kinetics; 50 mM HEPES pH 7.4, 150 mM NaCl, 0.01% Tween 20, 0.2% PEG3350, 0.25 mM TCEP, 100 µg/ml ovalbumin, 2% DMSO.

Biotinylated human IRE1.KR protein (human), sequence (O75460 547-977): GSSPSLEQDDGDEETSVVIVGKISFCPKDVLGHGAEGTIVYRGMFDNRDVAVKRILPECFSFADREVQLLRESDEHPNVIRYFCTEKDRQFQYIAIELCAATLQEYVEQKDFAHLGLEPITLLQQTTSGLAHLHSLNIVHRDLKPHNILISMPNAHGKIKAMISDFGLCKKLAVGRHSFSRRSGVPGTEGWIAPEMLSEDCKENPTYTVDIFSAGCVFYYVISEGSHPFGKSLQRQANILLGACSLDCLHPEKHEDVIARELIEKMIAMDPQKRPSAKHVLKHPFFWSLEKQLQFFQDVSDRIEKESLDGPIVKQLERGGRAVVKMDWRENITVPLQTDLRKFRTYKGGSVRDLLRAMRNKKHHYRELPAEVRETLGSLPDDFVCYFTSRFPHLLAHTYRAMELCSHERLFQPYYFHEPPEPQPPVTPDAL

On to “his-VHL/EloB (VHL in complex with Elongin B) (from UniProt P40337 1-213; Q15370 1-118)”, for which the KD without G6374 is over 10 µM.
